This is an account of results in patent US20210388084A1.

Assay [1] has as its target membrane-bound full-length human CD89 (human) (UniProt P24071). Kind of assay: FACS, HEK293F-huCD89 (Example 7 (b)); competitor non-aggr serum IgA. For orientation: A flow cytometer gives signals particle by particle.
The target is the same in assay [2]. Kind of assay: FACS, HEK293F-huCD89, 24 h 37C no NaN3, Ab 10 ug/mL then IgA; competitor heat-aggr serum IgA.
For assay [3] the target is unchanged. Kind of assay: FACS, HEK293F-huCD89, unlabeled Ab 10 ug/mL first; competitor A59-PE.
Assay [4] shares this target. Kind of assay: FACS, HEK293F-huCD89, 24 h 37C no NaN3, IgA then Ab 10 ug/mL; pre-bound heat-aggr serum IgA.
For assay [5] the target is unchanged. In words: FACS, HEK293F-huCD89, 4C +NaN3, Ab 10 ug/mL then IgA; competitor heat-aggr serum IgA.
For assay [6] the target is unchanged. In words: FACS, HEK293F-huCD89, unlabeled Ab 10 ug/mL first; competitor A3-PE.
For assay [7] the target is unchanged. In words: FACS, HEK293F-huCD89, 24 h 37C no NaN3, Ab 10 ug/mL then IgA; competitor non-aggr serum IgA.
Assay [8] has the same target. Kind of assay: FACS, HEK293F-huCD89, titrated Ab; competitor non-aggr serum IgA.
For assay [9] the target is unchanged. Kind of assay: FACS, HEK293F-huCD89, 4C +NaN3, IgA then Ab 10 ug/mL; pre-bound heat-aggr serum IgA.
For assay [10] the target is unchanged. Kind of assay: FACS, HEK293F-huCD89, 4C +NaN3, Ab 10 ug/mL then IgA; competitor non-aggr serum IgA.
Assay [11] shares this target. Kind of assay: FACS, HEK293F-huCD89, titrated Ab; competitor heat-aggr serum IgA.
Assay [12] has the same target. Kind of assay: FACS, HEK293F-huCD89, unlabeled Ab 10 ug/mL first; competitor MIP8a-PE.
The target is the same in assay [13]. Kind of assay: FACS, HEK293F-huCD89, 4C +NaN3, IgA then Ab 10 ug/mL; pre-bound non-aggr serum IgA.
Assay [14] has the same target. Kind of assay: FACS, HEK293F-huCD89 (Example 7 (b)); competitor heat-aggr serum IgA.
The target is the same in assay [15]. In words: FACS, HEK293F-huCD89, 24 h 37C no NaN3, IgA then Ab 10 ug/mL; pre-bound non-aggr serum IgA.

On to “mouse anti-human CD89 antibody clone A3 (Santa Cruz Biotechnology)”, for which the maximum inhibition of IgA binding in [1], in assay [8], in [11] and in [14] was 60% in each case. Also, the percent IgA binding (remaining) in assay [2] was 76 to 125%; in assay [4] it was 76 to 125%; in assay [7] it was 26 to 50%. The % blocking of A59-PE binding in [3] was above 90%. In addition, the % blocking of IgA binding in assay [5] and in assay [10] was 60% throughout. The percent IgA binding in assay [5] fell in the range of 26 to 50%; in assay [9], 76 to 125%; in [10], 26 to 50%; in assay [13] it was 76 to 125%. This substance also had a % blocking of A3-PE binding in assay [6] above 90%. In [12], this substance registered a % blocking of MIP8a-PE binding below 25%.

In the case of “mouse anti-human CD89 antibody clone A59 (BD Biosciences)”, the maximum inhibition of IgA binding in [1], in assay [8], in [11] and in assay [14] was 60% each time. Besides, the percent IgA binding (remaining) in assay [2] lay in the range of 76 to 125%; in [4] it was 76 to 125%; in assay [15] it was 26 to 50%; in assay [7], 26 to 50%. The substance further registered a % blocking of A59-PE binding in [3] above 90%. The % blocking of IgA binding in assay [5] and in assay [10] was 60% each time. Moreover, the percent IgA binding in assay [5] was 26 to 50%; in assay [9], 76 to 125%; in assay [10], 26 to 50%; in assay [13], 76 to 125%. In addition, the % blocking of A3-PE binding in [6] is above 90%. The substance also yielded a % blocking of MIP8a-PE binding in assay [12] below 25%.

Consider “mouse anti-human CD89 antibody clone MIP8a (BioRad)”, for which the percent IgA binding (remaining) in assay [2], in assay [4], in assay [15] and in assay [7] was 0 to 25% throughout. Also, the % blocking of A59-PE binding in assay [3] was 50%. The percent IgA binding in [5], in assay [9], in assay [10] and in assay [13] was 0 to 25% in each case. This substance also gave a % blocking of A3-PE binding in assay [6] of 55%. In assay [12], this substance had a % blocking of MIP8a-PE binding above 90%.

Turning to “purified mouse IgG1 isotype control (antibody)”, the percent IgA binding (remaining) in assay [2], in [4], in assay [15] and in assay [7] was 76 to 125% throughout. Besides, the percent IgA binding in assay [5], in assay [9], in assay [10] and in assay [13] was 76 to 125% in each case.
